Data published in patent US20190144549A1 (TILOS THERAPEUTICS, published 2019).
One block for each binder: values may come before it.

Legend:
[1] = molecular target: T1, LAP (LAP-TGFβ1) expressed endogenously on murine cells (murine, UniProt P04202 30-390); test: summary table; binding to GARP+ murine cells
T1 construct: Natural LAP-TGFβ1 on primary mouse cells, GARP+ or GARPneg; also called LAP on murine platelets, T cells, Tregs, B cells, tumour immune cells

[2] = molecular target: T2, murine LAP-TGFβ1 on transfected cells (murine, UniProt P04202 30-390); test: summary table; binding to murine TGFβ1 on transfected cells
T2 construct: Overexpressed on P3U1 or HT1080 cells; also called P3U1-murine LAP-TGFβ1; murine TGFβ1 on transfected cells
T2 sequence (P04202 30-390): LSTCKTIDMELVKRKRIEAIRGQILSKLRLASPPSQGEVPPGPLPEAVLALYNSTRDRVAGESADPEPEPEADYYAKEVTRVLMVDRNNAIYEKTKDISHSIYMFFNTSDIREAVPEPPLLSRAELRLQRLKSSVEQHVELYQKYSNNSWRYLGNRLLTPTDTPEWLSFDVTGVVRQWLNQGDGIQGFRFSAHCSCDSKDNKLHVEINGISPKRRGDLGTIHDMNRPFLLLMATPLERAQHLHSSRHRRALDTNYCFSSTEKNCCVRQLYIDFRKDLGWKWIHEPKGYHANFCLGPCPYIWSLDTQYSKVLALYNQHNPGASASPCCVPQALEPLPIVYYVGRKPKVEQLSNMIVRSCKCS

[3] = molecular target: T3, human LAP-TGFβ1 on transfected cells (human, UniProt P01137 30-390); test: cell-based or functional assay
T3 sequence (P01137 other isoform, or with tags, fused parts or gaps): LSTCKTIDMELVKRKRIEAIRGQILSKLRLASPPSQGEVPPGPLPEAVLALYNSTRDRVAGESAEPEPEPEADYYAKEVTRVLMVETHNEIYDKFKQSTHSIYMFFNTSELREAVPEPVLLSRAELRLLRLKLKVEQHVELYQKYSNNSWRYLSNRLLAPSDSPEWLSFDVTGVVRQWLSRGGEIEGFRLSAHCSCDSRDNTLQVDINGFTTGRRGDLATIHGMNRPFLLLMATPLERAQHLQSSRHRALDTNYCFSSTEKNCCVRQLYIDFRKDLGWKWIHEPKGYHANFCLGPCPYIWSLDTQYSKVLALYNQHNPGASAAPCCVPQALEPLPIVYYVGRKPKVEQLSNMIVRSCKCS

[4] = molecular target: T2, murine LAP-TGFβ1 on transfected cells; test: cell-based or functional assay
[5] = molecular target: T4, human LAP-TGFβ2 on HT1080 cells (human, UniProt P61812 21-414); test: summary table; binding to human TGFβ2
T4 construct: also called human TGFβ2
T4 sequence: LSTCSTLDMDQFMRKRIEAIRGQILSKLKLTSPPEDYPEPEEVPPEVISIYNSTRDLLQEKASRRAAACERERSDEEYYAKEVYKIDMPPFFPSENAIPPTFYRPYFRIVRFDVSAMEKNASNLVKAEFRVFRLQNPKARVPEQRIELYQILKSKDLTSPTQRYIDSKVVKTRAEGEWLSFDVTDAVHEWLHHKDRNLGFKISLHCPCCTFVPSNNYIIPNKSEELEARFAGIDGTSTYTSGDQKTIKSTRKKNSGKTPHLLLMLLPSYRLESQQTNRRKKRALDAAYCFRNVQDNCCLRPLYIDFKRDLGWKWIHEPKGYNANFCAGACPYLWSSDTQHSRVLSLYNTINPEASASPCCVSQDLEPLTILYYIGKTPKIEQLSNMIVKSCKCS
Procedure: (§1) Briefly, 4×10⁵ each of (a) HT1080 cells, (b) HT1080 cells overexpressing human LAP-TGFβ1, (c) HT1080 cells overexpressing human LAP-TGFβ2, (d) HT1080 cells overexpressing human LAP-TGFβ3, (e) HT1080 cells overexpressing murine LAP-TGFβ1, (f) P3U1 cells, (g) P3U1 cells overexpressing LAP-TGFβ1 and GARP, and (h) P3U1 cells overexpressing LAP-TGFβ1 and LRRC33 were cultured in 96-well plates. The plates were centrifuged for 5 min at 1,500 rpm, liquid was removed, and cells were resuspended with 200 μL FACS buffer. The plates were centrifuged again, diluted primary antibody was added to each well, and the plates were incubated on ice for 20 minutes, followed by centrifugation. The cells were resuspended in 200 μL FACS buffer, centrifuged again, and resuspended in 50 μL diluted secondary antibody (Alexa647-anti-Human IgG or APC-anti-Mouse IgG). The plates were incubated on ice for 20 minutes in the dark, washed twice with 200 μL FACS buffer, and cells from each well (in 200 μL FACS buffer) were read on the Attune NXT instrument.

[6] = molecular target: T5, human LAP-TGFβ3 on HT1080 cells (human, UniProt P10600 24-412); test: summary table; binding to human TGFβ3
T5 construct: also called human TGFβ3
T5 sequence: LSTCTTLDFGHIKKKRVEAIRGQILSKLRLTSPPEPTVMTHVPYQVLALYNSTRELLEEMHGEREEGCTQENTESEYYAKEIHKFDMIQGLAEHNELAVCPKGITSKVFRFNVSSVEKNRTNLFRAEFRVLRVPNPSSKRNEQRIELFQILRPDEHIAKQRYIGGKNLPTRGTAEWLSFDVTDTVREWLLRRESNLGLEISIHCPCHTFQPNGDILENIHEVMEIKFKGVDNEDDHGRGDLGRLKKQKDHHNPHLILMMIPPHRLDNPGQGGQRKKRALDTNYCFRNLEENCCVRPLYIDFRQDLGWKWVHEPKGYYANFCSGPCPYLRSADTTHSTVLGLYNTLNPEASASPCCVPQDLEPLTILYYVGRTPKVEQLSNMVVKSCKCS
Procedure: as §1

[7] = molecular target: T6, human LAP-TGFβ1 with a Y74T mutation on HT1080 cells (human, UniProt P01137 30-390); test: flow cytometry, HT1080 cells overexpressing the variant
T6 construct: also called HT1080-Y74T; Y74T (open) LAP-TGFβ1 variant
T6 sequence (P01137 other isoform, or with tags, fused parts or gaps Y74T Y74T): as the sequence (P01137 other isoform, or with tags, fused parts or gaps) above, with Y74T counted along it
Procedure: as §1
(§2) Briefly, 4×10⁵ each of (a) HT1080 cells, (b) HT1080 cells overexpressing human LAP-TGFβ1, (c) HT1080 cells overexpressing LAP-TGFβ1 with K27C and Y75C mutations, (d) HT1080 cells overexpressing LAP-TGFβ1 with a Y74T mutation, and (e) HT1080 cells overexpressing the LAP-only variant were cultured in 96-well plates. […]

[8] = molecular target: T4, human LAP-TGFβ2 on HT1080 cells; test: flow cytometry, HT1080 cells overexpressing human LAP-TGFβ2
Procedure: as §1

[9] = molecular target: T5, human LAP-TGFβ3 on HT1080 cells; test: flow cytometry, HT1080 cells overexpressing human LAP-TGFβ3
Procedure: as §1

[10] = molecular target: T7, LAP-only variant (human LAP without mature TGFβ1) on HT1080 cells (human, UniProt P01137 30-277); test: flow cytometry, HT1080 cells overexpressing the LAP-only variant
T7 construct: Overexpressed on HT1080 cells; also called HT1080-emptyLAP; empty LAP
T7 sequence (P01137 30-277 limits assumed, change not shown): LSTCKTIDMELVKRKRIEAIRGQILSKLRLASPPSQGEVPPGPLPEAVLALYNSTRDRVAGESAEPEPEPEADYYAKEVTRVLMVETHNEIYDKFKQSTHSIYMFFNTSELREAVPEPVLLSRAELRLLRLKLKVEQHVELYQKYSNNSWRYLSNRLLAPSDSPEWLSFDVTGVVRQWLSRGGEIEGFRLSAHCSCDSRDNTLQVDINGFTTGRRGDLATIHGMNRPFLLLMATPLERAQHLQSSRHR
Procedure: as §1, §2

[11] = molecular target: T8, mature TGFβ1 (free human TGFβ1, without LAP) (human, UniProt P01137 279-390); test: inhibition of a TGFβ1 ELISA after pre-incubation with mature TGFβ1
T8 construct: also called free TGFβ1
T8 sequence (P01137 279-390 limits assumed): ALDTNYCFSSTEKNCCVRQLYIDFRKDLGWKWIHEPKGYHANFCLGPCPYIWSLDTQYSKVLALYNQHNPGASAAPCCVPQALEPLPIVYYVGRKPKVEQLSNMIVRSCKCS
Procedure: To determine whether anti-LAP antibodies 28G11_hIgG1, 22F9_hIgG1, 20E6_hIgG1, 17G8_hIgG1, and 24E3_hIgG1, bind to free human TGFβ1 (i.e., mature TGFβ1 that lacks LAP), the ability of the antibodies to inhibit an anti-TGFβ ELISA was evaluated. Briefly, mature TGFβ1 (1000 μg) was incubated with the indicated anti-LAP antibodies at 10 μg/mL, an isotype control antibody as a negative control or the anti-TGFβ antibody 1D11 as a positive control for 10 minutes on ice. Supernatants were assayed in a TGFβ1 ELISA (R&D Systems) according to the manufacturer instructions to measure free TGFβ1.

[12] = molecular target: T9, recombinant human LAP-TGFβ1-Fc fusion protein (human, UniProt P01137 30-390); test: bio-layer interferometry (ForteBio), single concentration
T9 construct: also called human TGFβ1 in absence of anchor protein (ForteBio); not shown: Fc part, linker and order of fusion not described
T9 sequence (P01137 other isoform, or with tags, fused parts or gaps limits assumed): as the sequence (P01137 other isoform, or with tags, fused parts or gaps) above
Excerpt: The ability of the antibodies to bind in this assay provides definitive evidence that the antibodies bind to LAP-TGFβ1 in the absence of an anchor protein.

[13] = molecular target: T3, human LAP-TGFβ1 on transfected cells; test: summary table; binding to human TGFβ1 on transfected cells

T1 sequence (P04202 30-390): as the sequence (P04202 30-390) above

B1: 7H4 (antibody, V domains shown)
VH: DVQLQESGPGLVKPSQSLSLTCSVTGYSITSGYYWNWIRQFPGNKLEWMGYISYDGTNNYNPSLKNRISITRDTSKHQFFLKLNSVTTEDTATYYCARSFYNNYFDFWGQGTTLTVSS
VL: DIQMTQSPSSLSASLGGKVTITCKASQDIDKYIAWYQHKPGKGPRLLIHYTSTLQPGIPSRFSGSGSGRDYSFNISNLEPEDIATYYCLQYDNLRTFGGGTKLEIK
binding result [1]: binds
binding result [2]: binds

B2: 28G11 (antibody, V domains shown)
VH: EVKLVESGGGLVQPGGSLSLSCAASGFTFTDYYMSWVRQPPGKALEWLGFIRNKPNGYTTEYSASVKGRFTISRDNSQSILYLQMNVLRAEDSATYYCARYTGGGYFDYWGQGTTLTVSS
VL: DIQMTQTTSSLSASLGDRLTISCRASQDISNYLNWYQQKPDGTVKLLIYYTSRLHSGVPSRFSGSGSGTDYSLTISNLEQADIATYFCQQGDTLPWTFGGGTKLEIK
notes: Mouse hybridoma antibody; Used biotinylated or dye-conjugated in cell assays; also called 28G11_(hyb); 28G11_hyb
IC50 of inhibition of TGFβ1 activation, P3U1 cell assay [3]: 1.4 µg/mL
IC50 of inhibition of TGFβ1 activation, P3U1 cell assay [4]: 1 µg/mL
binding result [5]: no binding
binding result [6]: no binding

Next, values leading:

binding result [7]: no binding
binding result [8]: no binding
binding result [9]: no binding
binding result [10]: no binding
binding result [11]: no binding (tested: 10 µg/mL)
B3: 28G11_hIgG1 (antibody, V domains shown)
VH: EVKLVESGGGLVQPGGSLSLSCAASGFTFTDYYMSWVRQPPGKALEWLGFIRNKPNGYTTEYSASVKGRFTISRDNSQSILYLQMNVLRAEDSATYYCARYTGGGYFDYWGQGTTLTVSS
VL: DIQMTQTTSSLSASLGDRLTISCRASQDISNYLNWYQQKPDGTVKLLIYYTSRLHSGVPSRFSGSGSGTDYSLTISNLEQADIATYFCQQGDTLPWTFGGGTKLEIK
notes: 28G11 in human IgG1 format, by its name

binding result [12]: no binding
binding result [13]: no binding
B4: 16B4 (antibody, V domains shown)
VH: QVTLKESGPGILQPSQTLSLTCSFSGFSLNTFGMGVGWIRQPSGKGLEWLAHIWWDDDKYYNPALKSRLTISKDTSKNQVFLKIANVDTADTATYYCARIYYYGSWGLYYFDYWGQGTTLTVSS
VL: DIQMTQTTSSLSASLGDRVTISCRASQDISNYLNWYQQKPDGTVKLLIYYTSRLHSGVPSRFSGSGSGTDYSLTISNLEQEDIATYFCQQGNTLPPTFGGGTKLEIK
